Source: the Immune Epitope Database (IEDB)

What was measured:
[1] = molecular target: HLA-A*26:01; experiment: IEDB peptide-MHC binding, purified MHC/competitive/radioactivity; filed as Kd, often an IC50 or EC50 that approximates it; ≥ and ≤ were set here for values at or beyond the usual limits of such assays; settings: source organism: Dengue virus 3 Sri Lanka/1266/2000
[2] = molecular target: HLA-A*30:02; experiment: as above; settings: source organism: Dengue virus 3 Sri Lanka/1266/2000
[3] = molecular target: HLA-B*15:01; experiment: as above
[4] = molecular target: HLA-B*35:01; experiment: as above
[5] = molecular target: HLA-B*51:01; experiment: as above
[6] = molecular target: HLA-B*53:01; experiment: as above
[7] = molecular target: HLA-A*23:01; experiment: as above
[8] = molecular target: HLA-A*24:02; experiment: as above
[9] = molecular target: HLA-A*32:01; experiment: as above
[10] = molecular target: HLA-A*03:01; experiment: IEDB peptide-MHC binding, purified MHC/direct/fluorescence; filed as Kd, often an IC50 or EC50 that approximates it; ≥ and ≤ were set here for values at or beyond the usual limits of such assays
[11] = molecular target: HLA-A*31:01; experiment: as above
[12] = molecular target: HLA-B*18:01; experiment: as above
[13] = molecular target: HLA-B*40:01; experiment: as above; settings: source organism: Mammarenavirus lassaense
[14] = molecular target: HLA-B*07:02; experiment: as above
[15] = molecular target: HLA-A*11:01; experiment: as above; settings: source organism: Orthohantavirus hantanense
[16] = molecular target: HLA-B*15:01; experiment: as above; settings: source organism: Orthohantavirus hantanense
[17] = molecular target: HLA-B*27:05; experiment: as above; settings: source organism: Orthohantavirus hantanense
[18] = source organism: Dengue virus 3 Sri Lanka/1266/2000
[19] = source organism: Dengue virus 4 Dominica/814669/1981
[20] = source organism: Dengue virus 1 Brazil/97-11/1997
[21] = source organism: Dengue virus 1 Nauru/West Pac/1974
[22] = source organism: Dengue virus 4 Philippines/H241/1956
[23] = source organism: Vaccinia virus WR
[24] = source organism: Vibrio vulnificus
[25] = source organism: Orthohantavirus hantanense
[26] = source organism: Dengue virus 2 Jamaica/1409/1983

For LIVSGIFPY, the Kd [1] was 1160 nM, the Kd [2] was ≥ 76900 nM and the Kd [3, 18] was 2.91 nM. For the same sequence, the Kd [4, 18] was 82.7 nM.

LPLPWTAGA was tested, and the Kd [5, 19] was 2830 nM.

LPTALAFHL was tested, and the Kd [5, 20] was 1410 nM and the Kd [6, 20] was 2.16 nM.

For LYAVATTII, the Kd [7, 21] was 211 nM, the Kd [8, 21] was 59.7 nM and the Kd [5, 21] was 1390 nM.

LYAVATTIL gave a Kd [8, 22] of 79.5 nM.

Sequence MAMTCIAVG has a Kd [4, 22] of 116 nM.

In the case of MLFYLEEPI, the Kd [9, 23] is reported as 2.51 nM and the Kd [3, 23] is reported as 45.2 nM.

For MLHNFLPHM, the Kd [3, 23] was 41 nM.

With MQYMTIQQK the Kd [10, 24] was 203 nM and the Kd [11, 24] was 346 nM.

MSPCRMFSF showed a Kd [3, 23] of 17.3 nM.

NETGLELTL showed a Kd ([12]; source organism: Mammarenavirus lassaense) of 16.7 nM and a Kd [13] of 19 nM.

Work on NVINYFNRM yielded a Kd [3, 23] of 960 nM.

In the case of PFGDSYIVI, the Kd [7, 22] is reported as 723 nM.

With PVSDLKYSW the Kd [6, 19] was 1690 nM.

QEKWMTGRM showed a Kd ([12]; source organism: Yellow fever virus) of 3050 nM.

RAWDPQPAM was tested, and the Kd ([14]; source organism: Mus musculus) was 36.4 nM.

Sequence RFSTSLLFL has a Kd [8, 22] of 77.1 nM.

With RLKPVGSAY the Kd [10, 25] was 214 nM, the Kd [15] was 3630 nM and the Kd [11, 25] was 401 nM. The Kd [14, 25] was 676 nM, the Kd [16] was 357 nM and the Kd [17] was 8420 nM.

In the case of RQMEGEGIF, the Kd [9, 26] is reported as 140 nM and the Kd [3, 26] is reported as 5.85 nM.

For RSFTFKEGF, the Kd [3, 23] was 34.8 nM.
